± gives the uncertainty stated by the source.
assay: abundance fitness (aPCA) (normalised: wild type 0, dead -1); higher = more abundant; growth selection in yeast, the domain comes from the species named; details: Homo sapiens

Row | Substance | abundance fitness
1 | Lipoamide acyltransferase component of branched-chain alpha-keto acid dehydrogenase complex, mitochondrial R179N, P11182 | -0.156 ± 0.079
2 | Lipoamide acyltransferase component of branched-chain alpha-keto acid dehydrogenase complex, mitochondrial R179P, P11182 | -1.11 ± 0.085
3 | Lipoamide acyltransferase component of branched-chain alpha-keto acid dehydrogenase complex, mitochondrial R179Q, P11182 | 0 ± 0.051
4 | Lipoamide acyltransferase component of branched-chain alpha-keto acid dehydrogenase complex, mitochondrial R179S, P11182 | -0.212 ± 0.057
5 | Lipoamide acyltransferase component of branched-chain alpha-keto acid dehydrogenase complex, mitochondrial R179T, P11182 | -0.304 ± 0.091
6 | Lipoamide acyltransferase component of branched-chain alpha-keto acid dehydrogenase complex, mitochondrial R179W, P11182 | -0.28 ± 0.049
7 | Lipoamide acyltransferase component of branched-chain alpha-keto acid dehydrogenase complex, mitochondrial R199A, P11182 | 0.016 ± 0.045
8 | Lipoamide acyltransferase component of branched-chain alpha-keto acid dehydrogenase complex, mitochondrial R199C, P11182 | -0.054 ± 0.065
9 | Lipoamide acyltransferase component of branched-chain alpha-keto acid dehydrogenase complex, mitochondrial R199E, P11182 | 0.088 ± 0.048
10 | Lipoamide acyltransferase component of branched-chain alpha-keto acid dehydrogenase complex, mitochondrial R199G, P11182 | -0.204 ± 0.036
11 | Lipoamide acyltransferase component of branched-chain alpha-keto acid dehydrogenase complex, mitochondrial R199I, P11182 | -0.142 ± 0.09
12 | Lipoamide acyltransferase component of branched-chain alpha-keto acid dehydrogenase complex, mitochondrial R199K, P11182 | -0.033 ± 0.051
13 | Lipoamide acyltransferase component of branched-chain alpha-keto acid dehydrogenase complex, mitochondrial R199L, P11182 | -0.173 ± 0.04
14 | Lipoamide acyltransferase component of branched-chain alpha-keto acid dehydrogenase complex, mitochondrial R199M, P11182 | -0.088 ± 0.088
15 | Lipoamide acyltransferase component of branched-chain alpha-keto acid dehydrogenase complex, mitochondrial R199P, P11182 | -0.784 ± 0.079
16 | Lipoamide acyltransferase component of branched-chain alpha-keto acid dehydrogenase complex, mitochondrial R199Q, P11182 | 0.045 ± 0.045
17 | Lipoamide acyltransferase component of branched-chain alpha-keto acid dehydrogenase complex, mitochondrial R199S, P11182 | -0.08 ± 0.048
18 | Lipoamide acyltransferase component of branched-chain alpha-keto acid dehydrogenase complex, mitochondrial R199T, P11182 | -0.006 ± 0.062
19 | Lipoamide acyltransferase component of branched-chain alpha-keto acid dehydrogenase complex, mitochondrial R199V, P11182 | -0.129 ± 0.044
20 | Lipoamide acyltransferase component of branched-chain alpha-keto acid dehydrogenase complex, mitochondrial R199W, P11182 | -0.117 ± 0.046
21 | Lipoamide acyltransferase component of branched-chain alpha-keto acid dehydrogenase complex, mitochondrial S189A, P11182 | -0.03 ± 0.04
22 | Lipoamide acyltransferase component of branched-chain alpha-keto acid dehydrogenase complex, mitochondrial S189C, P11182 | -0.111 ± 0.071
23 | Lipoamide acyltransferase component of branched-chain alpha-keto acid dehydrogenase complex, mitochondrial S189E, P11182 | -0.001 ± 0.042
24 | Lipoamide acyltransferase component of branched-chain alpha-keto acid dehydrogenase complex, mitochondrial S189F, P11182 | -0.343 ± 0.058

Row | Substance | abundance fitness
25 | Lipoamide acyltransferase component of branched-chain alpha-keto acid dehydrogenase complex, mitochondrial S189G, P11182 | -0.065 ± 0.039
26 | Lipoamide acyltransferase component of branched-chain alpha-keto acid dehydrogenase complex, mitochondrial S189K, P11182 | -0.135 ± 0.068
27 | Lipoamide acyltransferase component of branched-chain alpha-keto acid dehydrogenase complex, mitochondrial S189L, P11182 | -0.45 ± 0.046
28 | Lipoamide acyltransferase component of branched-chain alpha-keto acid dehydrogenase complex, mitochondrial S189M, P11182 | -0.264 ± 0.061
29 | Lipoamide acyltransferase component of branched-chain alpha-keto acid dehydrogenase complex, mitochondrial S189P, P11182 | -0.232 ± 0.068
30 | Lipoamide acyltransferase component of branched-chain alpha-keto acid dehydrogenase complex, mitochondrial S189Q, P11182 | -0.097 ± 0.054
31 | Lipoamide acyltransferase component of branched-chain alpha-keto acid dehydrogenase complex, mitochondrial S189R, P11182 | -0.09 ± 0.039
32 | Lipoamide acyltransferase component of branched-chain alpha-keto acid dehydrogenase complex, mitochondrial S189T, P11182 | -0.033 ± 0.046
33 | Lipoamide acyltransferase component of branched-chain alpha-keto acid dehydrogenase complex, mitochondrial S189V, P11182 | -0.199 ± 0.043
34 | Lipoamide acyltransferase component of branched-chain alpha-keto acid dehydrogenase complex, mitochondrial S189Y, P11182 | -0.258 ± 0.19
35 | Lipoamide acyltransferase component of branched-chain alpha-keto acid dehydrogenase complex, mitochondrial S194A, P11182 | -0.564 ± 0.073
36 | Lipoamide acyltransferase component of branched-chain alpha-keto acid dehydrogenase complex, mitochondrial S194C, P11182 | -0.47 ± 0.045
37 | Lipoamide acyltransferase component of branched-chain alpha-keto acid dehydrogenase complex, mitochondrial S194E, P11182 | -0.504 ± 0.049
38 | Lipoamide acyltransferase component of branched-chain alpha-keto acid dehydrogenase complex, mitochondrial S194F, P11182 | -0.917 ± 0.088
39 | Lipoamide acyltransferase component of branched-chain alpha-keto acid dehydrogenase complex, mitochondrial S194G, P11182 | -0.319 ± 0.052
40 | Lipoamide acyltransferase component of branched-chain alpha-keto acid dehydrogenase complex, mitochondrial S194I, P11182 | -0.738 ± 0.12
41 | Lipoamide acyltransferase component of branched-chain alpha-keto acid dehydrogenase complex, mitochondrial S194K, P11182 | -0.378 ± 0.057
42 | Lipoamide acyltransferase component of branched-chain alpha-keto acid dehydrogenase complex, mitochondrial S194M, P11182 | -0.628 ± 0.082
43 | Lipoamide acyltransferase component of branched-chain alpha-keto acid dehydrogenase complex, mitochondrial S194N, P11182 | -0.287 ± 0.049
44 | Lipoamide acyltransferase component of branched-chain alpha-keto acid dehydrogenase complex, mitochondrial S194P, P11182 | -0.694 ± 0.075
45 | Lipoamide acyltransferase component of branched-chain alpha-keto acid dehydrogenase complex, mitochondrial S194R, P11182 | -0.314 ± 0.037
46 | Lipoamide acyltransferase component of branched-chain alpha-keto acid dehydrogenase complex, mitochondrial S194T, P11182 | -0.013 ± 0.06
47 | Lipoamide acyltransferase component of branched-chain alpha-keto acid dehydrogenase complex, mitochondrial S194V, P11182 | -0.864 ± 0.064
48 | Lipoamide acyltransferase component of branched-chain alpha-keto acid dehydrogenase complex, mitochondrial S194W, P11182 | -0.937 ± 0.069
